These results are taken from patent publication CN116723860A (NOVARTIS AG, dated 2023).

Assay [1] addresses T1, 重组人IL-1β (human, UniProt P01584 117-269).
T1 construct: also called huIL-1β; IL-1b
Kind of assay: solution equilibrium titration (SET), single target binding assay, mean KD.

The target in assay [2] is T2, 重组人IL-18 (human, UniProt Q14116 37-193).
T2 construct: also called huIL-18; BTP 25829
Nature of the assay: SET, single target binding assay.

B1: mAb2 (antibody, human IgG1, kappa, V domains shown)
VH: QVQLVESGGGVVQPGRSLRLSCAASGFTFSVYGMNWVRQAPGKGLEWVAIIWYDGDNQYYADSVKGRFTISRDNSKNTLYLQMNGLRAEDTAVYYCARDLRTGPFDYWGQGTLVTVSS
VL: EIVLTQSPDFQSVTPKEKVTITCRASQSIGSSLHWYQQKPDQSPKLLIKYASQSFSGVPSRFSGSGSGTDFTLTINSLEAEDAAAYYCHQSSSLPFTFGPGTKVDIKR
notes: Human anti-IL-1β antibody, bivalent; also called IL-1β抗体; 卡那吉努单抗 (canakinumab)
Molecule B1 showed a Kd in assay [1] of 0.6 pM.

B2: mAb1 (antibody, human IgG1, lambda, L234A L235A, V domains shown)
VH: EVQLVQSGAEVKKPGSSVKVSCKASGGTFKSYAISWVRQAPGQGLEWMGNIIPMTGQTYYAQKFQGRVTITADESTSTAYMELSSLRSEDTAVYYCARAAYHPLVFDNWGQGTLVTVSS
VL: DIVLTQPPSVSGAPGQRVTISCSGSSSNIGNHYVNWYQQLPGTAPKLLIYRNNHRPSGVPDRFSGSKSGTSASLAITGLQSEDEADYYCQSWDYSGFSTVFGGGTKLTVLG
notes: Human anti-IL-18 antibody, bivalent; also called IL-18抗体
In the case of B2, the binding result in assay [2] is on record as “binds”.

In general, Kd refers to the constant that tells how readily two partners part at equilibrium.
